{"source": "patent US9433687B2", "about": "“Anti-Notch3 antibodies and antibody-drug conjugates” (Pfizer Inc., priority 2012, dated 2016)", "molecules": {"B1": {"name": "hu28 VH1.0/VL1.0: humanized r28 variant VH1.0/VL1.0, anti-Notch3 antibody (VH SEQ ID NO: 13, VL SEQ ID NO: 25) (antibody, V domains shown)", "VH": "EVQLVESGGGLVQPGGSLRLSCAASGFTFRDYGMTWVRQAPGKGLEWVAYISSGSNYIYYAEAVKGRFTISRDNAKNSLYLQMNSLRAEDTAVYYCARRGPFVLDAWGQGTLVTVSS", "VL": "DIQMTQSPSSLSASVGDRVTITCKASQSINRYLHWYQQKPGKAPKLLIYNANGLQTGVPSRFSGSGSGTDFTLTISSLQPEDFATYYCLQHNTWPDTFGGGTKVEIK"}, "B2": {"name": "ch75: rat-human chimeric anti-Notch3 antibody 75, rat variable regions fused with human IgG1 and human kappa (antibody, V domains shown)", "VH": "QVKLLQSGAALVKPGASVKMSCKASGYAFTDYWVTWVKQSHGKSLEWIGEISPNSGGTNFNEKFKGKATLTVDKSTSTAYMELSRLTSEDSAIYYCTRGEIRYNWFAYWGQGTLVTVSS", "VL": "NIVMTQSPKSMSISVGDRVTMNCKASQNVGNNIAWYQQKPGQSPKLLIYYASNRYTGVPDRFTGGGYGTDFTLTINSMQAEDAAFYYCQRLYNSPFTFGSGTKLEIK"}}, "key": {"[1]": {"biological_target": "T1, full-length human Notch3 expressed on the cell surface of U2OS/hNotch3 cells (Homo sapiens, UniProt Q9UM47)", "T1 construct": "U-2 OS cells stably over-expressing human or mouse full length Notch3 protein on cell surface; expressed in transfected cells; host or cells: U-2 OS (human osteosarcoma)", "T1 sequence (Q9UM47 40-2321)": "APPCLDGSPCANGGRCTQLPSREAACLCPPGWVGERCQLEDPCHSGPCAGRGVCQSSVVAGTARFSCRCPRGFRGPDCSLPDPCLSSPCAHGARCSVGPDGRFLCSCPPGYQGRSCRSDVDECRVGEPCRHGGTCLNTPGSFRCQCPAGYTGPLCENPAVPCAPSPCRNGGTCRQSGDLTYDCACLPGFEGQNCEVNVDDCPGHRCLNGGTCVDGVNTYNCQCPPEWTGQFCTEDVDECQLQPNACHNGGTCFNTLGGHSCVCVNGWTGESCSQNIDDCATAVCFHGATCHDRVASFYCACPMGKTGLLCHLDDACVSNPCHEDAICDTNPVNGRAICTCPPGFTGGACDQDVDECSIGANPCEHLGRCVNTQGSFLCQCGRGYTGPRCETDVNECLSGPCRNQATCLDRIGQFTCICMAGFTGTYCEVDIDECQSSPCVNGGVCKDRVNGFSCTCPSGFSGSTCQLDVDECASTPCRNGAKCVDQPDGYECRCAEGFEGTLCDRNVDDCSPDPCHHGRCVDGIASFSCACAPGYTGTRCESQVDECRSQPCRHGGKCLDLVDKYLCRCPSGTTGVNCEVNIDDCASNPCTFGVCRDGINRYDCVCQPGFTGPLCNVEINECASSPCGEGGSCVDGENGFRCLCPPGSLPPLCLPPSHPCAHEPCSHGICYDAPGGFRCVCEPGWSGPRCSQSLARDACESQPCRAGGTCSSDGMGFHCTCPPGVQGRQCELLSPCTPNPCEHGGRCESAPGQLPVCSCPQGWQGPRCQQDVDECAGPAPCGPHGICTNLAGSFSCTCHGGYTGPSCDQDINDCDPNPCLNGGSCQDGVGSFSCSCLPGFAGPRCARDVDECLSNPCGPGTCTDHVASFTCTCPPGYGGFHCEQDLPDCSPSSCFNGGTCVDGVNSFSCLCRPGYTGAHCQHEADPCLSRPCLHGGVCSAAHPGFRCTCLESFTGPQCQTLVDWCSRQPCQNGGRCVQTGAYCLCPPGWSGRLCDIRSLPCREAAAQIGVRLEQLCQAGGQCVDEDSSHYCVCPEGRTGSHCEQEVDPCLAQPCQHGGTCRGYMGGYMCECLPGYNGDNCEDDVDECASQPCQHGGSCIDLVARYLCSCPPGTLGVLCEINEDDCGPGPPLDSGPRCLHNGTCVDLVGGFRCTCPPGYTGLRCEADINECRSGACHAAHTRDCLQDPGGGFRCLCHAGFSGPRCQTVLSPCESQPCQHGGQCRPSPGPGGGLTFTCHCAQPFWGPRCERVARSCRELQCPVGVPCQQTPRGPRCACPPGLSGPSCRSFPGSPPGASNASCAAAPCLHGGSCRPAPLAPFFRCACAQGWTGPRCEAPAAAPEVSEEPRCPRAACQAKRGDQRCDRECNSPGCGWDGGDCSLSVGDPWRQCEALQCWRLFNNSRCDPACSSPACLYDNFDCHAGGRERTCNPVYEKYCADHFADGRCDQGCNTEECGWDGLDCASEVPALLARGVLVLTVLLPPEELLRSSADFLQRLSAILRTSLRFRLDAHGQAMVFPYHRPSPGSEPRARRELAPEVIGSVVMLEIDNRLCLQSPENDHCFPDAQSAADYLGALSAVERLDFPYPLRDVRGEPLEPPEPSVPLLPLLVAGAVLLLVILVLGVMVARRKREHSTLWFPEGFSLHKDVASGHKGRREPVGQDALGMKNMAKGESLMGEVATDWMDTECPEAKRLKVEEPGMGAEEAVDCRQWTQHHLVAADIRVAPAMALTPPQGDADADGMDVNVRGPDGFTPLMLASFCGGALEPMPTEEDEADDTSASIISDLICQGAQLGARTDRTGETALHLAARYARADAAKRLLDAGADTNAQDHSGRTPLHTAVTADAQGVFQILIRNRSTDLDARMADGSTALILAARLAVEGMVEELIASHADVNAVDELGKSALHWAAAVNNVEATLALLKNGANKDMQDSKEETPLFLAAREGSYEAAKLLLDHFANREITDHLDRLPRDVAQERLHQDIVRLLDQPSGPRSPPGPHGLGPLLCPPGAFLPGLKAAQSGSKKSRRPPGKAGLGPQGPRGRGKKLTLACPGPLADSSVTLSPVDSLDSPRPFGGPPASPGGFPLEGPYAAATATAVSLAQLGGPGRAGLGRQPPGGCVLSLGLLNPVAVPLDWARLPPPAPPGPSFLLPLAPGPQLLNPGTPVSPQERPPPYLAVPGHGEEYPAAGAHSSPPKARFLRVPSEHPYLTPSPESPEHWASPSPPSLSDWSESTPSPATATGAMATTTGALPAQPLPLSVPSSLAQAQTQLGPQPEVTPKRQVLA", "experiment": "Cell-based ELISA, U2OS/hNotch3 cells", "conditions": "Table 29; two value columns; LB = lacked binding", "procedure": "(§1) Humanized hu28 and hu75, and rat-human chimeric, ch28 and ch75, anti-Notch3 antibodies were screened for cell surface Notch3 binding in a cell-based ELISA. U-2 OS cells stably over-expressing human or mouse full length Notch3 protein on cell surface (hereinafter U2OS/hNotch3 and U2OS/mNotch3, respectively) were plated at 50,000 cells/well in 96 well plates (white opaque, BD/VWR) the day before ELISA assay. On the day of the ELISA, culture media was removed from wells and serially diluted (1:3 in blocking buffer) antibody solutions were applied to the plate. Plates were incubated at room temperature for 2 hours before being washed with PBS-Mg/Ca. HRP-conjugated secondary antibody was then applied and incubated with cells for 1 hour as described above for recombinant protein ELISA. Plates were washed with PBS-Mg/Ca before being developed with Pico-Chemiluminescent developing kit (Thermal Scientific), and chemiluminescence measurements were performed per manufacturer's instructions. Data plotting and analyses were performed with Microsoft Excel and Graphpad-Prism software.\nUnconjugated anti-Notch3 antibodies, anti-Notch3 ADCs and a negative control antibody (huNeg8.8) were screened for cell surface binding activity to Notch3 expressing cell lines in a cell-based ELISA. […]"}, "MDA-MB-468": {"biological_target": "T2, MDA-MB-468 (Homo sapiens, UniProt Q9UM47)", "T2 construct": "endogenous Notch3 expressing cell lines, HCC2429 and MDA-MB-468; endogenous in cells; host or cells: MDA-MB-468", "T2 sequence (Q9UM47 40-2321)": "as above", "experiment": "Flow cytometry (FACS) binding, MDA-MB-468", "conditions": "4 μg/mL antibody", "procedure": "(§2) Unconjugated anti-Notch3 antibodies, hu28 and hu75, were examined for cell surface binding activity to Notch3 expressing cell lines by flow cytometry. Fluorescence activated cell sorting (FACS) analysis was conducted according to standard procedures. Cells were rinsed in HBSS with calcium chloride and magnesium chloride (herein termed HBSS++), harvested using trypsin without EDTA and neutralized with medium containing FBS. Cells were incubated on ice for 30 minutes with 4 μg/mL anti-Notch3 antibodies, hu28 and hu75, in HBSS++containing 3% HICS (heat-inactivated calf serum). Cells were washed three times with cold HBSS++, 3% HICS buffer. Cells were incubated in allophycocyanin-conjugated AffiniPure F(ab′)2 fragment goat anti-human IgG, Fc fragment secondary antibody (Jackson ImmunoResearch Laboratories, Inc., West Grove, Pa.) at 10 μg/mL for 30 minutes on ice in the dark. Cells were washed once with cold HBSS++/3% HICS buffer. Cells were resuspended in HBSS-++/3% HICS, 25 mM HEPES, 1 mM MgCl2 and 25 μg/ml DNaseI. 7-AAD (7-Amino-Actinomycin D) was added for exclusion of nonviable cells. Live cells were analyzed on a BD FACSCalibur flow cytometer (BD Biosciences, San Jose, Calif.). Mean fluorescence intensity (MFI) from channel FL-4 was calculated with FlowJo flow cytometry analysis software (Ashland, Oreg.)."}, "U2OS/hNotch3": {"biological_target": "U2OS/hNotch3 (Homo sapiens, UniProt Q9UM47)", "sequence (Q9UM47 40-2321)": "as above", "experiment": "Flow cytometry (FACS) binding, U2OS/hNotch3", "parameters": "U-2 OS cells stably over-expressing human full length Notch3 protein on cell surface; expressed in transfected cells; host or cells: U-2 OS (human osteosarcoma)", "conditions": "4 μg/mL antibody; positive control cell line", "procedure": "as §2"}, "MDA-MB-468/hNotch3": {"biological_target": "T3, MDA-MB-468/hNotch3 (Homo sapiens, UniProt Q9UM47)", "T3 construct": "cell lines engineered to over-express full length human Notch3 protein: MDA-MB-468/hNotch3 and U2OS/hNotch3; expressed in transfected cells; host or cells: MDA-MB-468", "T3 sequence (Q9UM47 40-2321)": "as above", "experiment": "Flow cytometry (FACS) binding, MDA-MB-468/hNotch3", "conditions": "4 μg/mL antibody", "procedure": "as §2"}, "[2]": {"biological_target": "T4, cell surface Notch3 on HCC2429 cells (Homo sapiens, UniProt Q9UM47)", "T4 construct": "endogenous Notch3 expressing cell lines, HCC2429 and MDA-MB-468; endogenous in cells; host or cells: HCC2429", "T4 sequence (Q9UM47 40-2321)": "as above", "experiment": "Cell-based ELISA, HCC2429 cells", "conditions": "Table 29; LB = lacked binding", "procedure": "Unconjugated anti-Notch3 antibodies, anti-Notch3 ADCs and a negative control antibody (huNeg8.8) were screened for cell surface binding activity to Notch3 expressing cell lines in a cell-based ELISA. Over-expressing Notch3 cell line, U2OS/hNotch3, and endogenous Notch3 expressing cell lines, HCC2429 and MDA-MB-468, were plated at 50,000, 200,000 and 100,000 cells/well, respectively, in 96 well plates (white opaque, BD/VWR) the day before ELISA assay. On the day of the ELISA, culture media was removed from wells and serially diluted (1:3 in DPBS with calcium chloride and magnesium chloride (Ca/Mg) and 1% BSA) antibody and ADC solutions were applied to the plate. Plates were incubated at room temperature for 2 hours before washed with DPBS with Ca/Mg and 1% BSA. HRP-conjugated secondary antibody was then applied and incubated with cells for 1 hour. Plates were washed with DPBS with Ca/Mg and 1% BSA before being developed with Pico-Chemiluminescent developing kit (Thermal Scientific), and chemiluminescence measurements were performed per manufacturer's instructions. Data plotting and analyses were performed with Microsoft Excel and Graphpad-Prism software.\nUnconjugated cysteine mutant humanized anti-Notch3 antibodies were screened for cell surface binding activity to Notch3 expressing cell lines in a cell-based ELISA, as described in previous Examples. […]"}, "[3]": {"biological_target": "T5, mouse Notch3 expressed on the cell surface of U2OS/mNotch3 cells (Mus musculus, UniProt Q61982)", "T5 construct": "U-2 OS cells stably over-expressing human or mouse full length Notch3 protein on cell surface; expressed in transfected cells; host or cells: U-2 OS (human osteosarcoma)", "T5 sequence (Q61982 40-2318)": "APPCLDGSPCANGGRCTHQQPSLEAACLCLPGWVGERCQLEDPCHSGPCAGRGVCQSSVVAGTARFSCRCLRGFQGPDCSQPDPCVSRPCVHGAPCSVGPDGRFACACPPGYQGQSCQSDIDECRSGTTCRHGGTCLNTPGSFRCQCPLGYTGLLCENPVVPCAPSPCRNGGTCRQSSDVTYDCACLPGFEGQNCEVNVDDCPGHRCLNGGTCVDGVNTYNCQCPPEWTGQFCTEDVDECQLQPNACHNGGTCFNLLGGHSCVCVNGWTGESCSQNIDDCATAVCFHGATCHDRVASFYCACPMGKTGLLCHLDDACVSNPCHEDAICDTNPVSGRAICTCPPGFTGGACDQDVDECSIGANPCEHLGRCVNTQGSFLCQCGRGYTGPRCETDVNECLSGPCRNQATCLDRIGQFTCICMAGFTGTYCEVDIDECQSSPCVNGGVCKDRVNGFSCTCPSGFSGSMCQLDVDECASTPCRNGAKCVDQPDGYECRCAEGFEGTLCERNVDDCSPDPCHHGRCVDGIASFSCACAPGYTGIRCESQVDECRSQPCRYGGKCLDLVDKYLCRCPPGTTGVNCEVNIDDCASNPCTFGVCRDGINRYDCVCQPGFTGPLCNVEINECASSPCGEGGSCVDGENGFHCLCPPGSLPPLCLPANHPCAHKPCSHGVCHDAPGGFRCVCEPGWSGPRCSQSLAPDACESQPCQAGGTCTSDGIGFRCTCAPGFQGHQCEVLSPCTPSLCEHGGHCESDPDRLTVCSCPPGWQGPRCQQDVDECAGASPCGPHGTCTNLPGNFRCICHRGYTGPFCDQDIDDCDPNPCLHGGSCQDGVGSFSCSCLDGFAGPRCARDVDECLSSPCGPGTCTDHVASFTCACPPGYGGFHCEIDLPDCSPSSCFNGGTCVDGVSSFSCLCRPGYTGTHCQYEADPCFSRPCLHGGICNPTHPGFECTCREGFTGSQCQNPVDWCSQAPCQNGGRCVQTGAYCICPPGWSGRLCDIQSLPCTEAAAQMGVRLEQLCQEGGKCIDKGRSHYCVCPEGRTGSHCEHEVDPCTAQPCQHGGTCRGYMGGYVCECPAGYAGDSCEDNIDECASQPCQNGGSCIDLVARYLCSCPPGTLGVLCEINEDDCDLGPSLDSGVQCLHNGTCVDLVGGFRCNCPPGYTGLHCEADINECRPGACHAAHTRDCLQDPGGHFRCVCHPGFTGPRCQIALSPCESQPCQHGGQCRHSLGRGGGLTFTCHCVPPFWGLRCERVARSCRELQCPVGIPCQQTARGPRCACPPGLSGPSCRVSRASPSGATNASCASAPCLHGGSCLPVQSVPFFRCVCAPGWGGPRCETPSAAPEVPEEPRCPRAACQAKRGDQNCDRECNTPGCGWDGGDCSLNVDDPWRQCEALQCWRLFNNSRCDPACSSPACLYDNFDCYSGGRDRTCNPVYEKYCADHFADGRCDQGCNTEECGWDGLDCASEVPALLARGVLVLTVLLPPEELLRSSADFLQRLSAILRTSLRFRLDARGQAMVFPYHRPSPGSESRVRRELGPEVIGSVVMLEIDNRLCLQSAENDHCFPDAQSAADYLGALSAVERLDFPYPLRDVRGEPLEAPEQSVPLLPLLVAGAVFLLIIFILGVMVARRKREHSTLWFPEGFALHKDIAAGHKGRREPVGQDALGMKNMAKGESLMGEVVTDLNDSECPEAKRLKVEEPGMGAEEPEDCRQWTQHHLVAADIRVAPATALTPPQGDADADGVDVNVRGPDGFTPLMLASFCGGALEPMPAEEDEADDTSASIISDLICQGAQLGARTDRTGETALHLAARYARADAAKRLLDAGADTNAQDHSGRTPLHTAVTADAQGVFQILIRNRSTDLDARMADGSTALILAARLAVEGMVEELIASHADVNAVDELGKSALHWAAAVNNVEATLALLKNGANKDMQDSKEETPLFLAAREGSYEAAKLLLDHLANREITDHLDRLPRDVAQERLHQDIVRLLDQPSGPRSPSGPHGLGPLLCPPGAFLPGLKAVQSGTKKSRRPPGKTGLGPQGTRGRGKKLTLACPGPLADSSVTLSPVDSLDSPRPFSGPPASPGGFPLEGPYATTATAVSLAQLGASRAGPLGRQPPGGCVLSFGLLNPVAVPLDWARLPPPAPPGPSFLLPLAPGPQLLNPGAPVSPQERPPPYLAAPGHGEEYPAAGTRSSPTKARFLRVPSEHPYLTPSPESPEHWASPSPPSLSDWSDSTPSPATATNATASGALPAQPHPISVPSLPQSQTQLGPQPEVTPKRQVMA", "experiment": "Cell-based ELISA, U2OS/mNotch3 cells", "conditions": "Table 3; N/B = non-binding", "procedure": "as §1, with “Plates were washed with PBS-Mg/Ca before being developed with Pico-Chemiluminescent developing kit (Thermal Scientific), and chemiluminescence measurements were performed per manufacturer's instructions.” left out"}}, "note": "Where “and” joins values, the source holds several entries; their conditions need not be identical. Equal values may be shown once."}
{"molecule": "B1", "values": [{"measurement": "EC50", "setting": "[1]", "value": "0.3 nM and 0.26 nM"}, {"measurement": "MFI", "setting": "MDA-MB-468", "value": 557}, {"measurement": "MFI", "setting": "U2OS/hNotch3", "value": 256}, {"measurement": "MFI", "setting": "MDA-MB-468/hNotch3", "value": 1192}, {"measurement": "EC50", "setting": "[2]", "value": 0.1, "unit": "nM"}]}
{"molecule": "B2", "values": [{"measurement": "EC50 (nM) cell surface Notch3 binding ELISA, Full-length Mouse Notch3", "setting": "[3]", "value": "N/B"}]}
